The values that follow are results of earlier work, collected in paper PMC6194691.

Bounds are passed on as bounds.

The data set deals with transferrin receptor (Rattus norvegicus) (UniProt Q99376).
Chain of UniProt Q99376 (Q99376 whole entry): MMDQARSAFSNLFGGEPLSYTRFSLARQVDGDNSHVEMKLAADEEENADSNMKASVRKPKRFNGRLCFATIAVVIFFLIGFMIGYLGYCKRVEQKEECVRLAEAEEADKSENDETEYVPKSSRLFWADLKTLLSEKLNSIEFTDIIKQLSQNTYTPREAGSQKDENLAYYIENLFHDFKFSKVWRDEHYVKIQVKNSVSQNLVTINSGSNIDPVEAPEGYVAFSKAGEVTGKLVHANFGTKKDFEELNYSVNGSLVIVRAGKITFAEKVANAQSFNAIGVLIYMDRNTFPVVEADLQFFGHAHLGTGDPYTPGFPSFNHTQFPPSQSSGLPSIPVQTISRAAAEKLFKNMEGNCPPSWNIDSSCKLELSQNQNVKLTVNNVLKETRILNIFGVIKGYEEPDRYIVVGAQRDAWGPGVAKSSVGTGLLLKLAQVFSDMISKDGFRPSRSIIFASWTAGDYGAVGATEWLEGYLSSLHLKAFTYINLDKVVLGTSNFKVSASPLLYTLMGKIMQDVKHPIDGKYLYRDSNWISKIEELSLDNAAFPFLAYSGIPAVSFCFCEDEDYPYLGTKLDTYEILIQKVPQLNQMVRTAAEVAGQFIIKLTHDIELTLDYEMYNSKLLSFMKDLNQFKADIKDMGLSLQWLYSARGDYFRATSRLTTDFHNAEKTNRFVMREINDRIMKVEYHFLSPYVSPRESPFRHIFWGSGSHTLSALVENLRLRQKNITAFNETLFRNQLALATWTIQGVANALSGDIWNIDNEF

As to apo-transferrin (from UniProt P12346), the Kd – broadly, a measure of binding affinity in units of concentration – is under 30 nM.
